US20240392004A1 (IMMUNOWAKE, published 2024)
Where a chain is given by its changes, count along the chain named. Names and notes keep the numbering of the source. Each block holds one binder with its values, some of them ahead of it.

Assays:
mouse PD-1 [1] = target: T1, mouse PD-1 (mouse, UniProt Q02242 25-167, limits assumed); experiment: same value as Table 15 (measured in PD-L2-Fc format)
T1 construct: also called mPD-1
T1 sequence (looked up): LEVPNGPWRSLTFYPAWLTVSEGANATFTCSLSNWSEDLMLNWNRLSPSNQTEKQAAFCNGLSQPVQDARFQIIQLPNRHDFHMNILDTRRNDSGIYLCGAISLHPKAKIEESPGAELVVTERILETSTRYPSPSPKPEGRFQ

mouse PD-1 [2] = target: T1, mouse PD-1; experiment: PD-L2-Fc format, method not stated
human PD-1 [3] = target: T2, human PD-1 (human, UniProt Q15116 25-167, limits assumed); experiment: PD-L2-Fc format, method not stated
T2 construct: also called hPD-1
T2 sequence (Q15116 25-167 limits assumed): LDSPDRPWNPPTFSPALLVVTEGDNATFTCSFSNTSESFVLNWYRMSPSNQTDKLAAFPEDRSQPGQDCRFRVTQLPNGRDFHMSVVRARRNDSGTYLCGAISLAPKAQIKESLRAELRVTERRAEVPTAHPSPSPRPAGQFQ

[4] = target: T3, human IL-2 receptor (IL-2Rα, IL-2Rβ, IL-2Rγ) (human, UniProt P01589 22-272; P14784 27-551; P31785 23-369); experiment: cell-based or functional assay
T3 sequence (looked up) 1: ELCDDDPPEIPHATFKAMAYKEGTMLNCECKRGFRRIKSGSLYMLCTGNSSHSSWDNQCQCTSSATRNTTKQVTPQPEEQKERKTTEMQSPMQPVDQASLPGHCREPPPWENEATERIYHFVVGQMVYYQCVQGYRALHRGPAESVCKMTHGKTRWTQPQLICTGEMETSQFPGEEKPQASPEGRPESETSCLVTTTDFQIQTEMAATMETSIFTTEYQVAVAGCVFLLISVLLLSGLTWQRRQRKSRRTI
T3 sequence (looked up) 2: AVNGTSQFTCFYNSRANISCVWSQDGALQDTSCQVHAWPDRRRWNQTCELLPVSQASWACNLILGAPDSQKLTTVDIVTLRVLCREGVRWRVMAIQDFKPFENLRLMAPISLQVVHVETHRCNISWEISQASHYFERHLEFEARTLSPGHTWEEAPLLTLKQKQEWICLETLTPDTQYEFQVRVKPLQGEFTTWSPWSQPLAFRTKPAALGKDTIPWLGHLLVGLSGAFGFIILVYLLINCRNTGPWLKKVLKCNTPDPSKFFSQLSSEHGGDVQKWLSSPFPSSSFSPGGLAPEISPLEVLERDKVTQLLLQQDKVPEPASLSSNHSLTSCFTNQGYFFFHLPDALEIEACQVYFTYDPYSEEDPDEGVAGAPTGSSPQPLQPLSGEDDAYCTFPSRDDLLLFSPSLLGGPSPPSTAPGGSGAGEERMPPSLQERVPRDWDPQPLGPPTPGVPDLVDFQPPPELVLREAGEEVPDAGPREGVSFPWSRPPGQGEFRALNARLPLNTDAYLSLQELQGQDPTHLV
T3 sequence (looked up) 3: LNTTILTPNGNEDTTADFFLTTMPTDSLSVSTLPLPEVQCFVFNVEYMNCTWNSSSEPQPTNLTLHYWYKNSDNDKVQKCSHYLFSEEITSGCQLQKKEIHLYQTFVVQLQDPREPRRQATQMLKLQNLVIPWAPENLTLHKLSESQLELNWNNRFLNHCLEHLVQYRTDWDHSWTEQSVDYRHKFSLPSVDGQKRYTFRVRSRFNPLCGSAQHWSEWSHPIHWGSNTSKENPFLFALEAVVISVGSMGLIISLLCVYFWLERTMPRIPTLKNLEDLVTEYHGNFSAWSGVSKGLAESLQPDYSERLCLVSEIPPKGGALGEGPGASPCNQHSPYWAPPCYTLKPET

mouse PD-1 [5] = target: T1, mouse PD-1; experiment: rounded restatement of Tables 14 and 15
human PD-1 [6] = target: T2, human PD-1; experiment: rounded restatement of Tables 14 and 15

Kd (mouse PD-1 [1]): 980 nM
B1: IL-12(E59A/F60A)/PD-L2(WT)-Fc (Fc fusion)
chain 1: LFTVTVPKELYIIEHGSNVTLECNFDTGSHVNLGAITASLQKVENDTSPHRERATLLEEQLPLGKASFHIPQVQVRDEGQYQCIIIYGVAWDYKYLTLKVKASYRKINTHILKVPETDEVELTCQATGYPLAEVSWPNVSVPANTSHSRTPEGLYQVTSVLRLKPPPGRNFSCVFWNTHVRELTLASIDLQSQMEPRTHPTGSGIWELKKDVYVVELDWYPDAPGEMVVLTCDTPEEDGITWTLDQSSEVLGSGKTLTIQVKAAGDAGQYTCHKGGEVLSHSLLLLHKKEDGIWSTDILKDQKEPKNKTFLRCEAKNYSGRFTCWWLTTISTDLTFSVKSSRGSSDPQGVTCGAATLSAERVRGDNKEYEYSVECQEDSACPAAEESLPIEVMVDAVHKLKYENYTSSFFIRDIIKPDPPKNLQLKPLKNSRQVEVSWEYPDTWSTPHSYFSLTFCVQVQGKSKREKKDRVFTDKTSATVICRKNASISVRAQDRYYSSSWSEWASVPCSGGGGSGGGGSGGGGSGGGGSGRNLPVATPDPGMFPCLHHSQNLLRAVSNMLQKARQTLEFYPCTSEEIDHEDITKDKTSTVEACLPLELTKNESCLNSRETSFITNGSCLASRKTSFMMALCLSSIYEDLKMYQVEFKTMNAKLLMDPKRQIFLDQNMLAVIDELMQALNFNSETVPQKSSLEEPDFYKTKIKLCILLHAFRIRAVTIDRVMSYLNASDKTHTCPPCPAPEDEGGPSVFLFPPKPKDTLMISRTPEVTCVVVDVSHEDPEVKFNWYVDGVEVHNAKTKPREEQYNSTYRVVSVLTVLHQDWLNGKEYKCKVSNKALPAPIEKTISKAKGQPREPQVYVYPPSREEMTKNQVSLTCLVKGFYPSDIAVEWESNGQPENNYKTTPPVLDEDGSFALVSKLTVDKSRWQQGNVFSCSVMHEALHNHYTQKSLSLSPGK
chain 2: LFTVTVPKELYIIEHGSNVTLECNFDTGSHVNLGAITASLQKVENDTSPHRERATLLEEQLPLGKASFHIPQVQVRDEGQYQCIIIYGVAWDYKYLTLKVKASYRKINTHILKVPETDEVELTCQATGYPLAEVSWPNVSVPANTSHSRTPEGLYQVTSVLRLKPPPGRNFSCVFWNTHVRELTLASIDLQSQMEPRTHPTGSGDKTHTCPPCPAPEKKGGPSVFLFPPKPKDTLMISRTPEVTCVVVDVSHEDPEVKFNWYVDGVEVHNAKTKPREEQYNSTYRVVSVLTVLHQDWLNGKEYKCKVSNKALPAPIEKTISKAKGQPREPQVYVLPPSREEMTKNQVSLLCLVKGFYPSDIAVEWESNGQPENRYMTWPPVLDSDGSFFLYSKLTVDKSRWQQGNVFSCSVMHEALHNHYTQKSLSLSPGK
notes: also called IL-12(E59A/F60A)/PD-L2-Fc; construct #29

Kd (mouse PD-1 [2]): 980 nM
Kd (human PD-1 [3]): 1200 nM
B2: PD-L2(wt)-Fc (heterodimer) (Fc fusion)
chain 1: LFTVTVPKELYIIEHGSNVTLECNFDTGSHVNLGAITASLQKVENDTSPHRERATLLEEQLPLGKASFHIPQVQVRDEGQYQCIIIYGVAWDYKYLTLKVKASYRKINTHILKVPETDEVELTCQATGYPLAEVSWPNVSVPANTSHSRTPEGLYQVTSVLRLKPPPGRNFSCVFWNTHVRELTLASIDLQSQMEPRTHPTDKTHTCPPCPAPEDEGGPSVFLFPPKPKDTLMISRTPEVTCVVVDVSHEDPEVKFNWYVDGVEVHNAKTKPREEQYNSTYRVVSVLTVLHQDWLNGKEYKCKVSNKALPAPIEKTISKAKGQPREPQVYVYPPSREEMTKNQVSLTCLVKGFYPSDIAVEWESNGQPENNYKTTPPVLDEDGSFALVSKLTVDKSRWQQGNVFSCSVMHEALHNHYTQKSLSLSPGK
chain 2: B2 chain 1 with D215K, E216K, Y332L, T347L, N371R, K373M, T375W, E381S, A386F, V388Y

Percent IL-2 signal transduction (HEK-IL-2 reporter assay) [4]: 0%
B3: anti-PD-1 antibody nivolumab (Opdivo) (antibody, human IgG4 S228P, kappa, V domains shown)
VH: QVQLVESGGGVVQPGRSLRLDCKASGITFSNSGMHWVRQAPGKGLEWVAVIWYDGSKRYYADSVKGRFTISRDNSKNTLFLQMNSLRAEDTAVYYCATNDDYWGQGTLVTVSS
VL: EIVLTQSPATLSLSPGERATLSCRASQSVSSYLAWYQQKPGQAPRLLIYDASNRATGIPARFSGSGSGTDFTLTISSLEPEDFAVYYCQQSSNWPRTFGQGTKVEIKR

Kd (mouse PD-1 [5]): ~100 nM
Kd (human PD-1 [6]): ~100 nM
Kd (mouse PD-1 [1]): 230 nM
B4: IL-12(E59A/F60A)/PD-L2(S58V)-Fc (IL-12 at hinge) (Fc fusion)
chain 1: LFTVTVPKELYIIEHGSNVTLECNFDTGSHVNLGAITAVLQKVENDTSPHRERATLLEEQLPLGKASFHIPQVQVRDEGQYQCIIIYGVAWDYKYLTLKVKASYRKINTHILKVPETDEVELTCQATGYPLAEVSWPNVSVPANTSHSRTPEGLYQVTSVLRLKPPPGRNFSCVFWNTHVRELTLASIDLQSQMEPRTHPTGGGGSGGGIWELKKDVYVVELDWYPDAPGEMVVLTCDTPEEDGITWTLDQSSEVLGSGKTLTIQVKAAGDAGQYTCHKGGEVLSHSLLLLHKKEDGIWSTDILKDQKEPKNKTFLRCEAKNYSGRFTCWWLTTISTDLTFSVKSSRGSSDPQGVTCGAATLSAERVRGDNKEYEYSVECQEDSACPAAEESLPIEVMVDAVHKLKYENYTSSFFIRDIIKPDPPKNLQLKPLKNSRQVEVSWEYPDTWSTPHSYFSLTFCVQVQGKSKREKKDRVFTDKTSATVICRKNASISVRAQDRYYSSSWSEWASVPCSGGGGSGGGSGGGGSRNLPVATPDPGMFPCLHHSQNLLRAVSNMLQKARQTLEFYPCTSEEIDHEDITKDKTSTVEACLPLELTKNESCLNSRETSFITNGSCLASRKTSFMMALCLSSIYEDLKMYQVEFKTMNAKLLMDPKRQIFLDQNMLAVIDELMQALNFNSETVPQKSSLEEPDFYKTKIKLCILLHAFRIRAVTIDRVMSYLNASGGGGSGGGDKTHTCPPCPAPEDEGGPSVFLFPPKPKDTLMISRTPEVTCVVVDVSHEDPEVKFNWYVDGVEVHNAKTKPREEQYNSTYRVVSVLTVLHQDWLNGKEYKCKVSNKALPAPIEKTISKAKGQPREPQVYVYPPSREEMTKNQVSLTCLVKGFYPSDIAVEWESNGQPENNYKTTPPVLDEDGSFALVSKLTVDKSRWQQGNVFSCSVMHEALHNHYTQKSLSLSPGK
chain 2: LFTVTVPKELYIIEHGSNVTLECNFDTGSHVNLGAITAVLQKVENDTSPHRERATLLEEQLPLGKASFHIPQVQVRDEGQYQCIIIYGVAWDYKYLTLKVKASYRKINTHILKVPETDEVELTCQATGYPLAEVSWPNVSVPANTSHSRTPEGLYQVTSVLRLKPPPGRNFSCVFWNTHVRELTLASIDLQSQMEPRTHPTGGGGSGGGDKTHTCPPCPAPEKKGGPSVFLFPPKPKDTLMISRTPEVTCVVVDVSHEDPEVKFNWYVDGVEVHNAKTKPREEQYNSTYRVVSVLTVLHQDWLNGKEYKCKVSNKALPAPIEKTISKAKGQPREPQVYVLPPSREEMTKNQVSLLCLVKGFYPSDIAVEWESNGQPENRYMTWPPVLDSDGSFFLYSKLTVDKSRWQQGNVFSCSVMHEALHNHYTQKSLSLSPGK
notes: also called IL-12(E59A/F60A)/PD-L2(mut2)-Fc
